Experimental data reported in the supplement of paper PMC6755084.

What follows are sequences tested on F1*sub RNA substrate (template-directed ligation) (assay: fraction ligated after 30 min (ligated reads / total reads); higher = more ligase activity; sequences stand for … in GAGACCGCAACTGAAAAGTTGT…AGTTCTGCACGTAGAAGCAAAAGGC). Conditions: 42 °C.
Summary of the method: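 Templates from an oligo pool were PCR-amplified, transcribed with T7 and gel-purified to give the ribozyme variants. Ligated and unligated products were separated on gel, reverse transcribed using barcoded primers, and read on a MiSeq. A quality filter of ≥20 was applied to core bases. Fraction ligated was taken as ligated reads as a share of all reads per variant.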

In order of falling fraction ligated:
1. TATCACTGTGTAAGCACTTTGGATGGGTTGA [3d1347]  0.878
2. TATCACTTGTGTAAGAATTTGGATGGGTTGA [3d1764]  0.863
3. TATCACTGTGTAAGACATTTGGATGGGTTGA [3d1350]  0.849
4. TATCACTTGTAAGACACTTTGGATGGGTTGA [3d1311]  0.837
5. TATCACTGTCGAAGACACTTTGGATGGGTTGA [2d133]  0.835
6. TATCACTTGCGTAAGCACTTTGGATGGGTTG [3d1658]  0.832
7. TATCACTTTCGTAAGAACTTTGATGGGTTGA [3d1541]  0.829
8. TATCACTTGTCGTAGCACTTTGGATGGGTTGA [2d223]  0.823
9. TATCACTTGCGTAAGACACTTTGGATGGGTTA [2d177]  0.822
10. TATCACTTGTGTAAGACCTTTGATGGGTTGA [3d1773]  0.819
11. TATCACTTGCGAAACACTTTGGATGGGTTGA [3d1614]  0.819
12. TATCACTTGTCGAGACACTTTGGATGGGTTGA [2d208]  0.816
13. TATCACTGTCTAAACACTTTGGATGGGTTGA [3d1360]  0.816
14. TATCCTTGCGTAAGACACTTTGATGGGTTGA [3d994]  0.815
15. TATACTTGTCTAAGACATTTGGATGGGTTGA [3d849]  0.811
16. TATCCTTGTCGTAACACTTTGGATGGGTTGA [3d1043]  0.81
17. TATCACTTGTCGTAAGAACTTTGGATGGGTTG [2d261]  0.81
18. TATCACGTCGTAAGACACTTGGATGGGTTGA [3d1304]  0.81
19. TATCATTGTCGTAAACACTTTGGATGGGTTG [3d1236]  0.809
20. TATCCTTGCGTAAACACTTTGGATGGGTTGA [3d988]  0.807
21. TATCACTGTCGTAAGACACTTGGATGGGTTG [3d1446]  0.807
22. TATCACTTGTGTAAACACTTTGGATGGGTTA [3d1752]  0.805
23. TATCATTGTCGTAAGACCTTGGATGGGTTGA [3d1255]  0.804
24. TATCACTGTCGTAGACACTTGGATGGGTTGA [3d1391]  0.799
25. TATCACTGTCGAAGACCTTTGGATGGGTTGA [3d1376]  0.798
26. TATCCTTGTCTAAACACTTTGGATGGGTTGA [3d1017]  0.793
27. TTCACTTGTGTAAACACTTTGGATGGGTTGA [3d390]  0.793
28. TTCACTTGTCGTAAGACACTTTGGATGGGTTG [2d46]  0.792
29. TATCCTTGCGTAAGACCTTTGGATGGGTTGA [3d991]  0.792
30. TATCCTTGTCGTAGACACTTTGGATGGGTTGA [2d96]  0.79
31. TATCACTTGTCGTAAGAATTGGATGGGTTGA [3d2152]  0.785
32. TATCACTTGTCAAGACACTTTGGATGGGTTA [3d1821]  0.781
33. TTCACTTGTCGAAGACACTTTGGATGGGTTG [3d428]  0.78
34. TATCACTTGTCAAGACACTTTGGATGGGTTG [3d1822]  0.777
35. TATCACTTGCGTAAACACTTTGGATGGGTTA [3d1647]  0.777
36. TTCCTTGTCGTAAGACACTTGGATGGGTTGA [3d310]  0.776
37. TATCACTTGTCGTAAGCACTTTGGATGGGTTG [2d253]  0.771
38. TATCACTTTCGTAAGACATTTGATGGGTTGA [3d1555]  0.768
39. TATCCTTTCGTAAGACACTTTGGATGGGTTG [3d983]  0.766
40. TATCATTGTCGTAAGACATTTGGATGGGTTG [3d1268]  0.766
41. ATCACTTGTCTAAGACACTTTGGATGGGTTG [3d184]  0.762
42. TATCACTTGTCGTAAGCTTTGGATGGGTTGA [3d2105]  0.759
43. ATCACTTGCGTAAGACCTTTGGATGGGTTGA [3d147]  0.757
44. TATCACTTGTCGAAACACTTTGGATGGGTTA [3d1923]  0.756
45. TATACTTGTGTAAGACACTTGGATGGGTTGA [3d836]  0.756
46. TATCCTTGTCGAAGACCTTTGGATGGGTTGA [3d1033]  0.747
47. TTCCTTGTCGTAAGACACTTTGGATGGGTTG [3d316]  0.731
48. ATCATTGTCGAAGACACTTTGGATGGGTTGA [3d91]  0.728
49. ATCACTTGTCGAAGACACTTTGGATGGTTGA [3d195]  0.714
50. TATACTGTCGAAGACACTTTGGATGGGTTGA [3d782]  0.71
51. TATCACTTGCGTAAGCACTTTGGATGGTTGA [3d1656]  0.705
52. TATACTTGCGTAAGACACTTTGGATGGGTTGA [2d73]  0.703
53. TATCACTGTCGTAAACACTTTGATGGGTTGA [3d1402]  0.669
54. TATCACTTGTCGTAGACACTTGATGGGTTGA [3d2036]  0.657
55. ACACTTGTCGTAAGACCTTTGGATGGGTTGA [3d37]  0.627
56. TATACTTGTCGTAGACACTTGGATGGGTTGA [3d876]  0.61
57. TTCACTTGCGTAAGACACTTTGGATGGGTTG [3d386]  0.571
58. TATATGTCGTAAGACACTTTGGATGGGTTGA [3d758]  0.57
59. ATCACTTGCGTAAGACACTTTGATGGGTTGA [3d150]  0.561
60. TTCACTTGTCGTAAGACACTTTGATGGGTTGA [2d41]  0.553
61. TTCACTTGTGTAAGACCTTTGGATGGGTTGA [3d393]  0.548
62. TATCACTTGTCGTAAGCACTTTGGATGGGTT [3d2150]  0.534
63. TTCACTTGCGTAAGAACTTTGGATGGGTTGA [3d377]  0.52
64. TTCATTGTCGTAAGACACTTTGGATGGGTTGA [2d27]  0.509
65. TTCACTTGTCGTAGACACTTGGATGGGTTGA [3d435]  0.489
66. TTCATTGTCGTAAGACACTTGGATGGGTTGA [3d329]  0.453
67. TACACTTGTCTAAGACACTTTGGATGGTTGA [3d643]  0.449
68. TATCCTGTCGTAAGACACTTTGGATGGGTTA [3d966]  0.436
69. ATACTTGTCGTAAGACCTTTGGATGGGTTGA [3d58]  0.412
70. ACACTTGTGTAAGACACTTTGGATGGGTTGA [3d30]  0.407
71. ATCACTTGTCGTAAGACACTTTGGATGGGTT [3d275]  0.392
72. TTCACTTGTCGTAGACACTTTGGATGGGTTA [3d440]  0.341
73. TCACTTGTCGTAAGACACTTTGGAGGGTTGA [3d20]  0.333
74. ATACTTGTCGTAAGACACTTTGGATGGGTTG [3d66]  0.244
75. TATCACTTTCGTAAGACACTTTGGATGGGTT [3d1583]  0.22
76. TATCACTTGTGTAAGACACTTTGGATGGTTGA [2d191]  0.198
77. TATCACTTGTCTAAGAACTTTGGATGGTTGA [3d1861]  0.166
78. TTCACTTGTCGTAAGACACTTGGATGGTTGA [3d488]  0.161
79. TATCACTTGTCGAAGCACTTTGGATGGTTGA [3d1932]  0.159
80. TATACTTGTGTAAGACACTTTGGATGGGTTA [3d841]  0.134
81. TATCACTTGTCGTAAGCACTTTGGGGGTTGA [3d2141]  0.129
82. TATCACTTGCGTAAGACACTTTGGGGGTTGA [3d1694]  0.122
83. TATCACTTGTCGAAGACACTTGGTGGGTTGA [3d1959]  0.119
84. TATCACTGCGTAAGACACTTTGGTGGGTTGA [3d1338]  0.119
85. TATCACTTGTGTAGACACTTTGGTGGGTTGA [3d1739]  0.105
86. TATCACTGTCGAAGACACTTTGGAGGGTTGA [3d1381]  0.104
87. TATCACTTGTCGAAGACACTTTGGTGGGTTA [3d1972]  0.103
88. TATCACTTGCGTAAGAACTTTGGATGGTTGA [3d1664]  0.0836
89. TACACTTGTCGTAAGACACTTTGGAGGGTTG [3d733]  0.0821
90. TTCACTTGTCGTAAACACTTTGGATGGTTGA [3d449]  0.067
91. TATACTTGTGTAAGACACTTTGGTGGGTTGA [3d838]  0.0565
92. TATCACTTGTCGTAAACATTTGGTGGGTTGA [3d2076]  0.0521
93. TACACTTGTCGTAAGACACTTGATGGGTTGA [3d715]  0.0512
94. TTCACTTGTCGTAAGACACTTTGGATGGGTT [3d506]  0.0428
95. TATCATTGTCGTAAACACTTTGGAGGGTTGA [3d1233]  0.0387
96. TATCACTTGTCGTAAACACTTTGGTGGTTGA [3d2095]  0.0341
97. TATCATTGTCGTAAGACACTTTGGAGGGTTG [3d1288]  0.0338
98. TATCACTTGTCGTAGACACTTTGTGGGTTGA [3d2043]  0.0334
99. TACACTTGTCGTAAGACACTTTGATGGGTTA [3d725]  0.0317
100. ATCACTTGTCGTAAGACACTTTGAGGGTTGA [3d262]  0.0273
101. TATCATTGTCGTAAGACACTTTGATGGTTGA [3d1279]  0.027
102. TACACTTTCGTAAGACACTTGGATGGGTTGA [3d594]  0.0252
103. TATACTTGTCGTAAGACCTTTGGAGGGTTGA [3d914]  0.0249
104. TATCACTTGTGTAAGACACTTTGGAGGGTTG [3d1805]  0.0238
105. TACACTTGTCGTAAGCACTTTGGATGGGTTA [3d690]  0.0198
106. TTCACTTGTCGTAAGACCTTTGGTGGGTTGA [3d472]  0.0157
107. TACACTTGCGTAAGACACTTTGGATGGGTTA [3d615]  0.013
108. ATCACTTGTCGTAAGACACTTTATGGGTTGA [3d260]  0.0125
109. TACACTTTCGTAAGACACTTTGGATGGGTTA [3d599]  0.00822
110. TATCACTTGTCGTAAGACACTTGAGGGTTGA [3d2240]  0.00563
111. TACACTTGTCGTAAGAACTTGGATGGGTTGA [3d693]  0.00498
112. TATACTTGTCGTAAGACACTTTGGAGGTTGA [3d942]  0.00359
